Substrate: O=C(CCc1ccc(O)cc1)c1c(O)cc(O)cc1O[C@@H]1O[C@H](CO)[C@@H](O)[C@H](O)[C@H]1O
Assay: cells, lysate or membranes
Settings: Xenopus oocytes, pH 5.0, 15 min uptake, cumulative transport assay

B1: PUP8 (AtPUP8) (Arabidopsis thaliana) (protein)
chain: MEITQVIYVNDHNNIEANLTGQEEMNTTMEIESSSVPQSKNYKKWLRISIYVFFVLACQALSTILGRVYYENGGKSTWMGTLVQLIGFPVLFLFRFFSQTKNPKPTEADFRKFSSFTILGSVYIVTGLLVSANSYMSSVGLLYLPVSTFSLILASQLAFTAFFSYFLNSQKFTPFIVNSLFLLTISSALLVVNTDSENTAKVSRVKYVIGIICTIGASAGIGLLLSLVQLILRKVLKKQTFSTVTDLVAYQSLVASCVVLIGLFASGEWKTLTSEMENYKLGKVPYVMTLASIAISWQVYTIGVVGLIFESSSVFSNSITAVGLPIVPVVAVIVFHDKMNASKIFSIILAIWGFISFVYQHYLDEKKLKTSHTSPVGDPHLLPAEEGHTNIHSV
Question: How did the Km turn out when B1 was run?
Answer: Its Km is 296 ± 39 µM.

Reference: paper doi:10.1101/2020.08.14.248047v1
